The source of these data is patent publication US20190055314A1 (ADAGENE, published 2019).

The target in one experiment is T1, human CD137 ligand (human, UniProt P41273 71-254, limits assumed, biotinylated in Example 6).
T1 construct: also called HuCD137L; biotinylated CD137L
The experiment is described as follows: flow cytometry. A general note: Flow cytometry measures light scatter and fluorescence of single cells or particles in a stream.

Experiment [1] deals with T2, full-length human CD137 on the cell surface (human, UniProt Q07011 18-255).
T2 construct: also called Human WT
Put plainly: flow cytometry, yeast display [Cont.].

In the next experiment the target is T3, Hu_CRD3 (human, limits assumed).
T3 construct: also called human CD137 CRD3
T3 chain: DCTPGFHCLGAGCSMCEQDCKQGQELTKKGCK
Put plainly: flow cytometry, yeast display [Cont.].

For a further experiment, the target named is T4, Hu_CRD4 (human, UniProt Q07011 119-159, limits assumed).
T4 construct: also called human CD137 CRD4
T4 chain: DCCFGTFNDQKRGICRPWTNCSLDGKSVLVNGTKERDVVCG
The experiment is described as follows: flow cytometry, yeast display [Cont.].

The next experiment deals with T5, Hu_CRD1-CRD2 (human, UniProt Q07011 24-86, limits assumed).
T5 construct: also called two CRD units (CRD1-CRD2) of human CD137
Put plainly: flow cytometry, yeast display [Cont.].

Another experiment has as its target T6, Hu_CRD2-CRD3 (human, UniProt Q07011 46-118, limits assumed).
T6 construct: also called two CRD units (CRD2-CRD3) of human CD137
Put plainly: flow cytometry, yeast display [Cont.].

In another experiment the target is T7, Hu_CRD1-CRD2-CRD3 (human, UniProt Q07011 24-118, limits assumed).
T7 construct: also called three CRD units (CRD1-CRD2-CRD3) of human CD137
The experiment is described as follows: flow cytometry, yeast display [Cont.].

Another experiment addresses T8, Hu_CRD3-CRD4 (human, UniProt Q07011 87-159, limits assumed).
T8 construct: also called two CRD units (CRD3-CRD4) of human CD137
The experiment is described as follows: flow cytometry, yeast display [Cont.].

For the next experiment, the target named is T9, Hu_CRD2-CRD3-CRD4 (human, UniProt Q07011 46-159, limits assumed).
T9 construct: also called three CRD units (CRD2-CRD3-CRD4) of human CD137
Put plainly: flow cytometry, yeast display [Cont.].

T1 sequence (P41273 71-254 limits assumed): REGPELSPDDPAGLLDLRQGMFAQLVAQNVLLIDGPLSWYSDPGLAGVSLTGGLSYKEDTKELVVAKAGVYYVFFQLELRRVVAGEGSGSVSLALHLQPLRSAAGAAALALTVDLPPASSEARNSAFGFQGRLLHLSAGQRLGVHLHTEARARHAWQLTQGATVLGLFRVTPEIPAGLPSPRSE

B1: full-length mouse CD137 on the cell surface (receptor)
chain: VQNSCDNCQPGTFCRKYNPVCKSCPPSTFSSIGGQPNCNICRVCAGYFRFKKFCSSTHNAECECIEGFHCLGPQCTRCEKDCRPGQELTKQGCKTCSLGTFNDQNGTGVCRPWTNCSLDGRSVLKTGTTEKDVVCGPPVVSFSPSTTISVTPEGG
For B1, the binding result with human CD137 ligand was “no binding”.

B2: mouse CD137L (ligand, UniProt P41274 104-309, looked up)
chain: RTEPRPALTITTSPNLGTRENNADQVTPVSHIGCPNTTQQGSPVFAKLLAKNQASLCNTTLNWHSQDGAGSSYLSQGLRYEEDKKELVVDSPGLYYVFLELKLSPTFTNTGHKVQGWVSLVLQAKPQVDDFDNLALTVELFPCSMENKLVDRSWSQLLLLKAGHRLSVGLRAYLHGAQDAYRDWELSYPNTTSFGLFLVKPDNPWE
B2: the binding result in experiment [1] is listed as “no binding”. For the same molecule, the “% in upper right quadrant” value was 0.2% in the experiment with Hu_CRD3; 0.15% with Hu_CRD4; 0.16% in the experiment with Hu_CRD1-CRD2; 0.19% with Hu_CRD2-CRD3; 0.19% with Hu_CRD1-CRD2-CRD3; 0.24% with Hu_CRD3-CRD4. In the experiment with Hu_CRD2-CRD3-CRD4, the “% in upper right quadrant” value turned out to be 0.026%. Moreover, the Mean in the experiment with Hu_CRD3 was found to be 46000; in the experiment with Hu_CRD4, 9270; with Hu_CRD1-CRD2, 43800; with Hu_CRD2-CRD3 it was 15900; with Hu_CRD1-CRD2-CRD3, 4700; with Hu_CRD3-CRD4, 10000. Also, in the experiment with Hu_CRD2-CRD3-CRD4, the Mean was found to be 3260.
